Experiment [1] has as its target T1, IL-17A protein (human, UniProt Q16552 24-155).
T1 sequence (looked up): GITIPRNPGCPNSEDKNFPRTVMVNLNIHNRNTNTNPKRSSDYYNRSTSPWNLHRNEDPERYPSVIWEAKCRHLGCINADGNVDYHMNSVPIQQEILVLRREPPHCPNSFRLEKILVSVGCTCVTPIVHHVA
The experiment can be described thus: cell-based or functional assay.

The target in experiment [2] is T2, VEGF165 (UniProt P15692-4 27-191).
T2 construct: treated as one molecule; also called VEGF protein; VGEF
Put plainly: ELISA, VEGF coated on the plate. For orientation: An ELISA detects its analyte on a solid surface through an enzyme-linked reagent.

For experiment [3], the target named is T1, IL-17A protein. The experiment can be described thus: ELISA, IL-17A coated on the plate.
The target of experiment [4] is T1, IL-17A protein. Put plainly: SPR, Biacore 8K, antibody captured on Protein A, IL-17A as analyte. (Surface plasmon resonance follows binding to a sensor surface in real time, without labels.)

Here are results for one molecule from patent EP4431529A1 (Sunshine Guojian Pharmaceutical (Shanghai) Co., Ltd., dated 2024).

T2 sequence (P15692 other isoform, or with tags, fused parts or gaps limits assumed): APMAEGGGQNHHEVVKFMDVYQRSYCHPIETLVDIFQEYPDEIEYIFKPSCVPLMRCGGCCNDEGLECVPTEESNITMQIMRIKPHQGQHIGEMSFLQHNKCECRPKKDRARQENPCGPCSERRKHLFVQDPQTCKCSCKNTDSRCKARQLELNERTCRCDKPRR

B1: anti-IL-17 monoclonal antibody 608 (antibody, human IgG1, kappa, V domains shown)
VH: EVQLVESGGGLVQPGGSLRLSCAASGFTFSSFDMSWGRQAPGKRLEWVAFMSSGGSTYYPDSVKGRFTISRDNSKNTLYLQMNSLRAEDTAVYYCARGERYGSYWGQGTLVTVSS
VL: DIQMTQSPSSLSASVGDRVTITCKASDHINNWLAWYQQKPGKAPKLLISGATSLETGVPSRFSGSGSGTDYTLTISSLQPEDFATYYCQQYWSTPFTFGSGTKLEIKR
notes: Humanized anti-human IL-17A monoclonal antibody from CN 201780033670.5; positive control
As usually defined, the EC50 is the midpoint of the concentration-response curve. A low value points to higher potency in that assay. One may read the Kd as the equilibrium constant for the complex coming apart. A higher Kd goes with a looser complex. Broadly, the koff is a measure of how fast the partners let go of each other. The term kon denotes a measure of how fast the partners come together. For the molecule B1, the “IC50 of blocking IL-17A-induced IL-6 secretion from HeLa cells” value in experiment [1] was 0.877 nM. Besides, the binding result in experiment [2] was “no binding (tested: 25 nM (highest concentration tested))”. The molecule also displayed an EC50 in experiment [3] of 0.052 nM. Besides, in experiment [4], the affinity, expressed as Kd, was 0.0164 nM; the off-rate constant (koff) amounted to 4e-05 s⁻¹; the kon was 2.44e+06 M⁻¹ s⁻¹.
